B1: Telomere length regulation protein TEL2 homolog (Homo sapiens), Q9Y4R8 (parent)
chain: MEPAPSEVRLAVREAIHALSSSEDGGHIFCTLESLKRYLGEMEPPALPREKEEFASAHFSPVLRCLASRLSPAWLELLPHGRLEELWASFFLEGPADQAFLVLMETIEGAAGPSFRLMKMARLLARFLREGRLAVLMEAQCRQQTQPGFILLRETLLGKVVALPDHLGNRLQQENLAEFFPQNYFRLLGEEVVRVLQAVVDSLQGGLDSSVSFVSQVLGKACVHGRQQEILGVLVPRLAALTQGSYLHQRVCWRLVEQVPDRAMEAVLTGLVEAALGPEVLSRLLGNLVVKNKKAQFVMTQKLLFLQSRLTTPMLQSLLGHLAMDSQRRPLLLQVLKELLETWGSSSAIRHTPLPQQRHVSKAVLICLAQLGEPELRDSRDELLASMMAGVKCRLDSSLPPVRRLGMIVAEVVSARIHPEGPPLKFQYEEDELSLELLALASPQPAGDGASEAGTSLVPATAEPPAETPAEIVDGGVPQAQLAGSDSDLDSDDEFVPYDMSGDRELKSSKAPAYVRDCVEALTTSEDIERWEAALRALEGLVYRSPTATREVSVELAKVLLHLEEKTCVVGFAGLRQRALVAVTVTDPAPVADYLTSQFYALNYSLRQRMDILDVLTLAAQELSRPGCLGRTPQPGSPSPNTPCLPEAAVSQPGSAVASDWRVVVEERIRSKTQRLSKGGPRQGPAGSPSRFNSVAGHFFFPLLQRFDRPLVTFDLLGEDQLVLGRLAHTLGALMCLAVNTTVAVAMGKALLEFVWALRFHIDAYVRQGLLSAVSSVLLSLPAARLLEDLMDELLEARSWLADVAEKDPDEDCRTLALRALLLLQRLKNRLLPPASP

In one assay the parent is B1. The note with it: with pihd1_human PIH1D1, Q9NWS0.
Chain of pihd1_human PIH1D1, Q9NWS0 (Q9NWS0 whole entry): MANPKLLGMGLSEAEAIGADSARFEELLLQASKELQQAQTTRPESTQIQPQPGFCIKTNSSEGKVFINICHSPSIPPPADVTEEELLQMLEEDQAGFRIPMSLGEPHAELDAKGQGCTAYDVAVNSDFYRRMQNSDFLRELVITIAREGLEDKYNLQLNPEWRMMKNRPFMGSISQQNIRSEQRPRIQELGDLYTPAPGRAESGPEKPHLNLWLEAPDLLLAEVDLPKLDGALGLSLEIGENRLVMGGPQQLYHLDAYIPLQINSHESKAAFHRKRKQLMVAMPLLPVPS
Consider D492A, for which the “effect of a mutation on the interaction” value was “disrupting interaction strength”.
Still for that read-out and setting: under D490A stands “disrupting interaction strength”; under D493A, “disrupting interaction strength”.

In a further assay the parent is B1. Conditions: with pihd1_human PIH1D1, Q9NWS0. This is another data set of the same source.
Consider D492A;D493A, for which the “effect of a mutation on the interaction” value was “disrupting interaction strength”.

The values above are taken from IntAct's records for PubMed 24656813.
